# Test results published in patent publication US20250041377A1, “PHARMACEUTICAL USE” (ENLITISA (SHANGHAI) PHARMACEUTICAL CO., LTD., priority 2018, published 2025).
# B1: rhEGF: Recombinant Human Epidermal Growth Factor, lyophilized powder dissolved in normal saline (protein, UniProt P01133 23-1207, looked up)
# Pro-epidermal growth factor: PQHWSCPEGTLAGNGNSTCVGPAPFLIFSHGNSIFRIDTEGTNYEQLVVDAGVSVIMDFHYNEKRIYWVDLERQLLQRVFLNGSRQERVCNIEKNVSGMAINWINEEVIWSNQQEGIITVTDMKGNNSHILLSALKYPANVAVDPVERFIFWSSEVAGSLYRADLDGVGVKALLETSEKITAVSLDVLDKRLFWIQYNREGSNSLICSCDYDGGSVHISKHPTQHNLFAMSLFGDRIFYSTWKMKTIWIANKHTGKDMVRINLHSSFVPLGELKVVHPLAQPKAEDDTWEPEQKLCKLRKGNCSSTVCGQDLQSHLCMCAEGYALSRDRKYCEDVNECAFWNHGCTLGCKNTPGSYYCTCPVGFVLLPDGKRCHQLVSCPRNVSECSHDCVLTSEGPLCFCPEGSVLERDGKTCSGCSSPDNGGCSQLCVPLSPVSWECDCFPGYDLQLDEKSCAASGPQPFLLFANSQDIRHMHFDGTDYGTLLSQQMGMVYALDHDPVENKIYFAHTALKWIERANMDGSQRERLIEEGVDVPEGLAVDWIGRRFYWTDRGKSLIGRSDLNGKRSKIITKENISQPRGIAVHPMAKRLFWTDTGINPRIESSSLQGLGRLVIASSDLIWPSGITIDFLTDKLYWCDAKQSVIEMANLDGSKRRRLTQNDVGHPFAVAVFEDYVWFSDWAMPSVMRVNKRTGKDRVRLQGSMLKPSSLVVVHPLAKPGADPCLYQNGGCEHICKKRLGTAWCSCREGFMKASDGKTCLALDGHQLLAGGEVDLKNQVTPLDILSKTRVSEDNITESQHMLVAEIMVSDQDDCAPVGCSMYARCISEGEDATCQCLKGFAGDGKLCSDIDECEMGVPVCPPASSKCINTEGGYVCRCSEGYQGDGIHCLDIDECQLGEHSCGENASCTNTEGGYTCMCAGRLSEPGLICPDSTPPPHLREDDHHYSVRNSDSECPLSHDGYCLHDGVCMYIEALDKYACNCVVGYIGERCQYRDLKWWELRHAGHGQQQKVIVVAVCVVVLVMLLLLSLWGAHYYRTQKLLSKNPKNPYEESSRDVRSRRPADTEDGMSSCPQPWFVVIKEHQDLKNGGQPVAGEDGQAADGSMQPTSWRQEPQLCGMGTEQGCWIPVSSDKGSCPQVMERSFHMPSYGTQTLEGGVEKPHSLLSANPLWQQRALDPPHQMELTQ
# modifications: Pro-epidermal growth factor
# notes: Recombinant Human Epidermal Growth Factor, lyophilized powder dissolved in normal saline
# Columns and labels:
# [1] = test system: Hyp, VEGF and TGF-β1 in wound tissue; assay: Acute wound model, ELISA of wound tissue; assay type: in vivo, C57BL/6 mice; conditions: for wound Hyp content (Mean): indicator of collagen regeneration; for TGF-β1 content (Mean): wound tissue
# Excerpt: (§1) The model group was given same amount of normal saline. There were 8 mice in each group.
# Samples were taken at Day 4 and Day 7 post-wound infliction. The mice were sacrificed and the wound tissue taken by the same biopsy punch used to create the wound. Then 5 mm of tissue was cut off from the center of the sample and was preserved in 10% neutral buffered formalin (Nanchang Rain Dew Experimental Equipment Co., Ltd., Nanchang, Hubei Province, China), and analyzed by histological embedding (HE) in paraffin wax, sectioning and staining.
# The rest of the samples were stored at −80° C. for further analysis. Tissue was cut into small pieces and liquid nitrogen was added to increase brittleness. 9 mL of normal saline was added to 1 g of tissue, which was then ground using a Tissuelyser (Shanghai Jingxin Industrial Development Co., Ltd., Shanghai, China) at 55 Hz for 60 seconds, followed by centrifuging at 8000 rpm for 10 minutes at 4° C.
# The supernatant was collected, and the extracted protein was used for ELISA analysis using standard ELISA test kits and an ELISA reader (SH-1000 Hitachi, Japan). Vascular endothelial growth factor (VEGF), transforming growth factor beta 1 (TGF-β1) and hydroxyproline (Hyp) were assayed. The ELISA kits were purchased from Beijing 4A Biotech Co., Ltd. (Beijing, China).
# [2] = test system: full thickness skin wound on the back; assay: Acute wound model, remaining wound area; assay type: in vivo, C57BL/6 mice; conditions: ± SD
# Protocol: 6-8 weeks old male C57BL/6 mice were supplied by Changzhou Cvens Experimental Animal Co. Ltd (Changzhou, Jiangsu Province, China). Prior to any experiments being conducted, mice were housed under standardized conditions (at a constant temperature of 22±2° C., with alternating 12 hour periods of light and darkness), and were fed on a standard mouse diet with water, for about a week.
# General anesthesia was induced using intraperitoneal 3% chloral hydrate (1 mL/10 g of body weight). The hair on the back was shaved by a baby hair shaver and depilated with cream. The skin area was wiped and sterilized with 75% alcohol twice.
# An EMS skin biopsy punch (Electron Microscopy Sciences, P.O. Box 550, 1560 Industry Road, Hatfield, PA, USA) with a 18 mm diameter was used to make a round wound on the back. The full thickness of skin was removed and the depth of the wound reached the fascia. Wounds were left open without a suture.
# as §1
# Recombinant Human Epidermal Growth Factor (rhEGF, Shanghai Haohai Biological Technology Co. Ltd, 23/F, Shanghai, China) was purchased and prepared according to the manufacturer's instructions. The lyophilized rhEGF powder (100000 IU/vial) was dissolved in 20 mL of normal saline to make a solution with a concentration of 5000 IU/mL. The working dose of rhEGF for this experiment was 1285 IU/wound.
# For this experiment, Compound A was also obtained from GL Biochem (Shanghai) Ltd. The peptide powders were stored at −20° C. and dissolved in saline at concentrations of 61.8 μg/mL (Compound A), and 61 μg/mL (Compound B). 50 μL of the solutions were applied onto the wound surfaces.
# Wounds were dressed with gauze and transparent dresser after drug administration. Photographs were taken for each wound every other day from Day 0. Photos were scanned into a computer, and wound areas calculated using ImageJ image analysis software (National Institutes of Health, […]).
# The unhealed wound area was expressed as a percentage of the original wound area: […]
# where A0 and At refer to the initial area at Day 0 and the wound area at the date of measurement (time t), respectively.
molecule,measurement,setting,value
B1,wound Hyp content (Mean),[1]; Day 4,1.808 µg/mg
same,TGF-β1 content (Mean),[1]; Day 4,18190.6 pg/g
same,wound Hyp content (Mean),[1]; Day 7,2.679 µg/mg
same,TGF-β1 content (Mean),[1]; Day 7,15443.1 pg/g
same,ratio of remaining wound area of initial wound,"[2]; Day 0, topical 50 μL/wound once daily, rhEGF 1285 IU/mouse, Compound A 3.09 μg/mouse, Compound B 3.05 μg/mouse",82.0 ± 2.2%
same,ratio of remaining wound area of initial wound,"[2]; Day 1, topical once daily",100 ± 9.9%
same,ratio of remaining wound area of initial wound,"[2]; Day 2, topical once daily",94.1 ± 4.3%
same,ratio of remaining wound area of initial wound,"[2]; Day 3, topical once daily",78.6 ± 7.3%
same,ratio of remaining wound area of initial wound,"[2]; Day 4, topical once daily",61.5 ± 3.3%
same,ratio of remaining wound area of initial wound,"[2]; Day 5, topical once daily",53.0 ± 1.0%
same,ratio of remaining wound area of initial wound,"[2]; Day 6, topical once daily",47.2 ± 5.8%
